# Laboratory results reported in article PMC4938799, “LD Motif Recognition by Talin: Structure of the Talin-DLC1 Complex” (Structure(London, England:1993), 2016).
# pKd: −log10 of the molar value. Where two headings read alike, the source gives them in different places. Ends that are not written are not given here.
# Legend:
# talin R8 domain = target: T1, talin R8 domain (Mus musculus, UniProt P26039); assay: 1H,15N-HSQC NMR titration of talin R8 with peptides; type: binding
# T1 construct: conducted using 0.1 mM [^15N]talin R8 domain; hexa-histidine tag followed by TEV protease cleavage site (N, cleaved yes); made in house; host or cells: E. coli BL21 STAR (DE3)
# T1 sequence (P26039 1461-1580 limits assumed): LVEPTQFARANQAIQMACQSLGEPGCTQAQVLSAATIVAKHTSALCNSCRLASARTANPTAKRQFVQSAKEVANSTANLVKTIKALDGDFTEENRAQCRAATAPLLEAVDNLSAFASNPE
# Protocol: NMR spectra were collected on Bruker Avance III 600- and 800-MHz spectrometers equipped with CryoProbes. Experiments were performed at 298 K in 20 mM sodium phosphate (pH 6.5) and 50 mM NaCl with 5% (v/v) ^2H2O. Dissociation constants were evaluated from the ^1H,^15N-HSQC chemical-shift changes in the titration experiments conducted using 0.1 mM [^15N]talin R8 domain. Peptides were added from 5- to 10-mM stock solutions to generate titration points at peptide/protein ratios 0.1, 0.2, 0.5, 0.75, 1, 2, 4, and 8.
# NMR Spectroscopy - Spectra were processed with TopSpin (Bruker) and analysed using CCPN Analysis (Vranken et al., 2005). […] The changes in chemical shift of 15N-talin R8 domain were calculated from 1H,15N-HSQC spectra as Δδ=√(ΔδH2+(ΔδN*0.15)2). The cross-peaks corresponding to the bound state were assigned by following chemical shift changes throughout the R8 titration with the increasing amount of peptides.
# Dissociation constants were evaluated from the 1H,15N-HSQC chemical shift changes in the titration experiments conducted using 0.1 mM 15N-talin R8 domain. Peptides were added from 5-10 mM stock solutions to generate titration points at 0.1, 0.2, 0.5, 0.75, 1, 2, 4 and 8 peptide:protein ratios.
# Concentrations of the DLC1 and RIAM peptides were determined from UV absorbance at 280 nm. […]
# Concentration of the R8 domain that lacks UV-active aromatic residues was estimated from the comparison with the spectra of the R3 domain that has similar molecular weight and shape using the calibration procedure described in (Wider and Dreier, 2006). Dissociation constants were determined by fitting the chemical shift changes to the equation:
# ( ) ( ) [𝑃] + [𝐿] + 𝐾𝑑 − √([𝑃] + [𝐿] + 𝐾𝑑)2 − 4[𝑃][𝐿] where ∆(𝐻, 𝑁)0 is the weighted chemical shift difference at saturation, [P] and [L] are protein and ligand concentrations, respectively. Data were fitted independently for the well-resolved peaks and the average Kd was calculated from 3 different peaks with the lowest standard deviations of the fits. […]
# [1] = Solubility of peptides and protein fragments; type: physicochemical
substance,measurement,setting,value
"DLC1(467–489): synthetic DLC1 peptide, residues 467–489; shorter fragment used for crystallization",chemical-shift changes / broadening of talin R8 on peptide addition,"talin R8 domain; 1H,15N-HSQC, talin R8, 298 K, pH 6.5, 4-fold excess of peptide (DLC1(467–489), paxillin LD1) or titration",large chemical-shift changes
same,solubility,[1],less soluble than the longer fragment
ENEDIFPELDDILYHVKGMQRIVNQWSEK [DLC1(461–489)],pKd,talin R8 domain; read-out: KD determined by fitting chemical-shift changes,4.32
MDDLDALLADLESTTS [paxillin LD1],pKd,talin R8 domain,3.77
